Values joined by “and” are separate entries in the source; they are usually repeats but may differ in a detail not shown here. Equal entries are not always repeated.

The target in one data set is T1, hAMCase (Homo sapiens, UniProt Q9BZP6).
T1 construct: 6-histidine tag (C); made in house
The experiment in a line: methylallosamidin inhibition of hAMCase, chitobiose-4MU substrate. In kind it is biochemical. The settings on record: 2 nM hAMCase, 5 μM chitobiose-4MU. The procedure:
(§1) Analysis of hAMCase and mNC inhibition by methylallosamidin was performed by incubating various concentrations of methylallosamidin with 2 nM mNC or 2 nM hAMCase for 10 minutes prior to the addition of 5 μM chitobiose-4MU substrate. Maximal activity was determined by the initial rate of the enzyme activity without the inhibitor methylallosamidin. The percentage of enzyme activity was then calculated and plotted for each concentration of methylallosamidin compared to maximal activity. For the data shown in FIGS. 15C and 15D, the maximal initial rate (RFU/sec) is 1.1 for hAMCase and 21.0 for mNC. […] Conversely, 10 times more methylallosaminidin was required to inhibit mNC than hAMCase.

For a further data set, the system named is mNC. The experiment in a line: methylallosamidin inhibition of mNC, chitobiose-4MU substrate. The data set is classed as biochemical, cynomolgus monkey. On the procedure:
as §1

The nature of data set [1]: chitinase kcat and Km determination, hydrolysis of chitobiose-4MU. The data set is classed as biochemical. The settings on record: for chitobioside-4MU substrate concentration showing substrate inhibition / apparent transglycosylation: hAMCase 1 nM, mNC 0.25 nM. The procedure:
Km and Kcat values for hAMCase and mNC. To better understand the mechanism for the increased specific activity of mNC compared to hAMCase, we measured the km and kcat for each enzyme. The progress curves of hAMCase (1 nM) hydrolysis reactions for 4MU product formation were linear during the first 10 min. for chitobioside-4MU substrate concentrations between 0 to 75 μM (data not shown). The rate of product formation was slower at the highest substrate concentration tested, 150 μM, compared to 75 μM, reflecting substrate inhibition due to transglycosylation, consistent with a previous report (Chou et al. (2006) Biochemistry 45, 4444-4454). We confirmed the high substrate concentration was not due to inner filter effect. In separate control experiments, the 4MU fluorescent signal was not quenched by chitobiose-4MU up to 600 μM.
The initial rates within the first 10 min. of hAMCase (1 nM) or mNC (0.25 nM) were plotted against the concentration of chitobiose-4MU that were in the linear range for both enzymes. […] The same Km and Kcat values for each enzyme were obtained from Line-weaver Burke plots of the linear curves.

The nature of data set [2]: relative specific activity of purified chitinases. In kind it is biochemical. The following applies: 5 μM chitobiose-4MU, 0.1 M citrate phosphate. On the procedure:
As shown in FIGS. 15A-15D, further characterization of the purified mNC was performed by measuring the relative specific activity, pH profiling, and inhibition by an art-recognized chitinase inhibitor, methylallosamidin. Briefly, various concentrations of mNC, ranging from 0.156 nM to 5 nM, or hAMCase, ranging from 1.56 nM to 50 nM, were incubated with 5 μM chitobiose-4MU substrate in 0.1 M citrate phosphate, 0.0005% Brij35 buffer. The relative specific activity of each enzyme was then determined by measuring the initial rate of enzyme activity versus the enzyme concentration.

A short description of data set [3]: pH profile of purified chitinases. In kind it is biochemical. The settings on record: for activity at lower pH values: pH 2.0 and 3.5; for pH of maximal activity: pH 2 to pH 8, 5 μM chitobiose-4MU; for slope of the initial rate at the various enzyme concentrations at maximal activity: pH 5.0, 5 μM chitobiose-4MU. The procedure:
Analysis of the pH profiles of hAMCase and mNC were performed by incubating various concentrations of purified hAMCase (ranging from 0.05 nM to 50 nM) or mNC (ranging from 0.018 nM to 5 nM) with 5 μM chitobiose-4MU substrate in 0.1 M citrate phosphate buffer containing 0.005% Brij35 prepared at pH 2 to pH 8. The slope of the initial enzyme rate for each of the enzyme concentrations was then compared at each pH. […] The slope of the initial rate at the various enzyme concentrations measured for this maximal activity was 13.1 for mNC and 0.45 for hAMCase. This maximal value was set to 100% for each enzyme and the relative activity, for comparison of the activity at different pH values.

Data set [4] is described as follows: apparent Km of purified chitinases with increasing chitobiose-4MU. In kind it is biochemical. The settings on record: for Km: purified 6-histidine tagged enzyme. From the text:
hAMCase, engineered with a C-terminal 6-histidine tag, was purified to a single band on SDS-PAGE from a stable CHO cell line transfected with cDNA encoding this hAMCase construct by nickel chromatography. Similarly, mNC, engineered with a C-terminal 6-histidine tag, was purified to a single band on an SDS-PAGE from COS cells transfected with cDNA encoding this mNC construct by nickel chromatography. The enzymatic activity of recombinant hAMCase to mNC was compared, as follows.

Data set [5] can be described thus: chitin RBV assay (chitin hydrolysis). The data set is classed as biochemical. The following applies: 37° C., 24 hours. The procedure:
Chitin RBV assay. Carboxymethyl-substituted chitin labeled covalently with Remazol Brilliant Violet (CM-Chitin-RBV) (Loewe Biochemica, Sauerlach, Germany) was used to measure chitinolytic activity (Wirth S J, Wolf G A, (1992) Soil Biol Biochem v24 p511-519). A solution of 2 mg/ml CM-chitin-RBV (50 μL) was added to hAMCase (AMCase) or mNC (cyno chitintase) in a total volume of 200 μL of buffer (0.2 M citrate phosphate buffer pH 5.0) in 96-well v-bottom plates (Costar Cat. No. 3894 Acton, Mass.). The plates were sealed with low evaporation lids and incubated at 37° C. for 24 hours. The reaction was terminated by the addition of 1 N HCl, causing precipitation of the non-degraded high-polymeric substrate. The plates were cooled on ice for 10 min. and centrifuged (1400 g, 10 min). The supernatants (100 μL) were transferred to 96-well plates (Costar cat. No. 3690) and measured at […] (Molecular devices).
Chitin hydrolysis. We employed the chitin RBV assay, a soluble, dye-labelled and acid-precipitable assay for endo-chitinases to determine if mNC and hAMCase hydrolyze chitin (Wirth S J, Wolf G A (1992) Soil Biol Biochem 24, 511-519). […] The released amount of soluble chitin oligomers was dose-dependent on enzyme concentration (FIG. 16).

The nature of data set [6]: chitinase enzyme assay in conditioned media of transfected COS cells. The data set is classed as biochemical. On the procedure:
Enzymatic activity assays were performed using cloned mNC, engineered hNC (stop codon substituted to allow for translation of full protein), engineered mut-hNC (truncated), and cloned hAMCase in COS cells. The full length mNC construct was expressed and the chitinase activity of the resultant gene products was measured.
Cultured conditions were as follows: COS cells were cultured in DME media and were transfected at 90% confluency using TransIT®-LT1 transfection reagent (MIRUS). 24 hours post transfection, cell culture media was replaced with serum-free R1CD1 media. Conditioned media, containing secreted enzyme, was collected 48 hours later. Chitinase enzyme assays were performed directly from these samples, as follows.

Setting [7] is: Table 1, pH 5.0 citrate phosphate buffer.
The mark [8] stands for this setting: Table 1, pH 5.0 citrate phosphate buffer, read-out: Km.
Setting [9] is: text, Michaelis-Menten fit, hAMCase 1 nM or mNC 0.25 nM, read-out: Km app.

T1 sequence (Q9BZP6 22-476 N45D/D47N/R61M/I339V/F354S/V432G): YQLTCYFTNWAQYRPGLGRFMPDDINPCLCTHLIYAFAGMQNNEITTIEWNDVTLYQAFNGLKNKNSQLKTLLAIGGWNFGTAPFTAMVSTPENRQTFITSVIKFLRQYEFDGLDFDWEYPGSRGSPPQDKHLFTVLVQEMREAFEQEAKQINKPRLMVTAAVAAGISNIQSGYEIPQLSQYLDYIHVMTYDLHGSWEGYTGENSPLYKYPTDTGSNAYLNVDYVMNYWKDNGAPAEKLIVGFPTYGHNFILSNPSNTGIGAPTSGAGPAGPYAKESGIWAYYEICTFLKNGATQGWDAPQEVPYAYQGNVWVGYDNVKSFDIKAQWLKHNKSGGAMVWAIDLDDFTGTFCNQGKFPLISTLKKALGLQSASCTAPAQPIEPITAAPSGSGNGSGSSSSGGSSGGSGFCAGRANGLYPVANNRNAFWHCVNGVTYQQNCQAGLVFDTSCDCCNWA

As usually defined, the IC50 is the concentration at which inhibition is half-maximal. With `COC[C@H]1O[C@@H](O[C@H]2[C@@H](O)[C@@H](NC(C)=O)[C@H](OC3C(O)C4N=C(N(C)C)OC4C3CO)O[C@@H]2CO)[C@H](NC(C)=O)[C@H](O)[C@@H]1O` (some centres unmarked) [methylallosamidin], the “inhibition of hAMCase with increasing concentrations of methylallosamidin” value on hAMCase is on record as “dose-dependent inhibition”. In addition, the IC50 came out at 5.5 nM on hAMCase (10 minutes preincubation) and 58 nM with mNC (2 nM mNC, 10 minutes preincubation, 5 μM chitobiose-4MU). Moreover, in the data set with mNC (2 nM mNC, 5 μM chitobiose-4MU), the “inhibition of mNC with increasing concentrations of methylallosamidin” value is “dose-dependent inhibition”. Besides, the “amount of inhibitor required to inhibit mNC relative to hAMCase” value in the data set with mNC (mNC versus hAMCase) stood at 10 times.

In general, Km refers to the substrate concentration at which the rate is half of its maximum. For “hAMCase: human Acidic Mammalian Chitinase, SEQ ID NO:29”, the kcat is 3.0 ± .35 s − 1 in data set [1] (setting [7]); “about 3 s^−1” in data set [1] (summary text b32); 3.0+/−0.35 in data set [1] (text b472, unit not given). Moreover, the Km in data set [1] (setting [8]) was 42 ± 6 µM; in data set [1] (text, Michaelis-Menten fit, hAMCase 1 nM or mNC 0.25 nM, listed as AMCase, read-out: Km app), 42 µM; in data set [1] (setting [9]), around 42 µM; in data set [4], 20 µM. Also, the “chitobioside-4MU substrate concentration showing substrate inhibition / apparent transglycosylation” value in data set [1] is 150 µM. Besides, the relative specific activity in data set [2] is given as 0.4 units/sec/nM. Further, the “activity at lower pH values” in data set [3] is “lower activity, but retain significant activity”. Moreover, the “pH of maximal activity” value in data set [3] came out at 5.0. In data set [3], the “slope of the initial rate at the various enzyme concentrations at maximal activity” value stood at 0.45. In data set [5], the chitin hydrolysis result is “generated soluble chitin oligomers”.

For the compound “mNC: macaque novel chitinase cloned from cynomolgus monkey, SEQ ID NO:2”, the kcat is recorded as 31.8 ± 3.2 s − 1 in data set [1] (setting [7]); “about 32 s^−1” in data set [1] (summary text b32); 31.8+/−3.2 in data set [1] (text b472, unit not given). Also, the Km in data set [1] (setting [8]) was 6 ± 1 µM; in data set [1] (setting [9]), ~6 µM and 6 µM; in data set [4], 2 µM. Also, in data set [1], the “chitobioside-4MU substrate concentration showing substrate inhibition / apparent transglycosylation” value was at least 37 µM. In data set [2], this compound had a relative specific activity of 14.4 units/sec/nM. Moreover, the “activity at lower pH values” in data set [3] was “lower activity, but retain significant activity”. In addition, the “pH of maximal activity” value in data set [3] came out at 5.0. In data set [3], the “slope of the initial rate at the various enzyme concentrations at maximal activity” value turned out to be 13.1. For the same compound, in data set [6], the “enzymatic (chitinase) activity” value is given as “significant enzymatic activity”. Further, the “lower apparent Km for chitobiose-4MU compared to hAMCase” value in data set [4] (mNC versus hAMCase) turned out to be 10 fold. Moreover, in data set [5], the chitin hydrolysis result is on record as “generated soluble chitin oligomers”.

The record behind these values is patent publication US20090010942A1, “NOVEL PRIMATE CHITINASES AND USES THEREFOR” (WYETH, priority 2007, published 2009).
